Data from patent publication US20220403023A1 (WUXI BIOLOGICS IRELAND, published 2022).

What was measured:
[1] = biological target: T1, human CD47 on engineered CHO-K1 cells (human, UniProt Q08722 19-323); assay: FACS on CHO-K1 cells expressing human CD47 (CHOK1-huCD47), goat anti-human IgG-Fc PE
T1 construct: whole, on cells; also called human CD47-expressing cells
Procedure: (§1) Briefly, the engineered CD47-expressing cells were coated into 96-well U-bottom plates at a density of 1×10⁵ cells/well and centrifuged at 1500 rpm at 4° C. for 4 min before removing the supernatant. […] The cells were washed twice with 180 μL 1% BSA-PBS. The secondary antibody, Goat Anti-human IgG-Fc PE was added to re-suspend cells and incubated at 4° C. in the dark for 30 min followed by washing with 180 μL 1% BSA-PBS. At the end, the cells were re-suspended in 100 μL 1% BSA-PBS, and the fluorescence intensity was measured by FACS (BD Canto II) and analyzed by FlowJo Version software. The binding EC50s were calculated by using GraphPad Prism software equation: Nonlinear regression (curve fit)—log (agonist) vs. response—Variable slope.

human CD47 ECD protein [2] = biological target: T2, human CD47 ECD protein (human, UniProt Q08722 19-139, limits assumed); assay: competition ELISA: plate-coated human CD47 ECD (1 µg/mL), antibody titrated together with human SIRPα-His (1 µg/mL), bound SIRPα detected with anti-His-HRP
T2 construct: extracellular domain; The assays say only 'human CD47 ECD protein' / 'Human CD47 protein'; 55 kDa was used as molecular weight in SPR; also called human CD47 protein; W345-hPro1.ECD (sino)
Procedure: 96-well plates were coated with human CD47 ECD at 1 μg/mL at 4° C. overnight and blocked with 2% BSA-PBS for 1 hr. […] The TMB peroxidase substrate solution was added and then reaction was stopped after 12 minutes using 2M HCl. All incubation steps were performed at room temperature, and the plates were washed with PBST between steps. The absorbance of the testing samples was measured at 450 nm with a multiwall plate reader. The competitive binding IC50s were calculated by using GraphPad Prism software equation: Nonlinear regression (curve fit)—log (antagonist) vs. response—Variable slope.

[3] = biological target: T3, CD47 on human red blood cells (human, UniProt Q08722 19-323); assay: FACS on human red blood cells, goat anti-human IgG-Fc PE
T3 construct: whole, on cells; also called human RBCs; hRBC
Procedure: The cells were washed twice with 180 μL 1% BSA-PBS. The secondary antibody, Goat Anti-human IgG-Fc PE was added to re-suspend cells and incubated at 4° C. in the dark for 30 min followed by washing with 180 μL 1% BSA-PBS. At the end, the cells were re-suspended in 100 μL 1% BSA-PBS, and the fluorescence intensity was measured by FACS (BD Canto II) and analyzed by FlowJo Version software. The binding EC50s were calculated by using GraphPad Prism software equation: Nonlinear regression (curve fit)—log (agonist) vs. response—Variable slope.

human CD47 ECD protein [4] = biological target: T2, human CD47 ECD protein; assay: SPR Biacore T200, antibody captured on anti-human IgG Fc chip, human CD47 as analyte, 1:1 model
Procedure: Each antibody was captured on an anti-human IgG Fc antibody immobilized CMS sensor chip (GE). Human CD47 protein at different concentrations were injected over the sensor chip at a flow rate of 30 uL/min for an association phase of 180 s, followed by 3600 s dissociation. The chip was regenerated by 10 mM glycine (pH 1.5) after each binding cycle. The sensorgrams of blank surface and buffer channel were subtracted from the test sensorgrams. The experimental data was fitted by 1:1 model using Langmiur analysis. Molecular weight of 55 kDa was used to calculate the molar concentration of analyte antigen.

HER3.his [5] = biological target: T4, HER3.his (Homo sapiens (Human), UniProt P21860 20-643); assay: ELISA, protein coated at 1 µg/mL
HSA. [6] = biological target: T5, HSA. (UniProt P02768 25-609); assay: ELISA, protein coated at 1 µg/mL
PD-1.his [7] = biological target: T6, PD-1.his (Homo sapiens (Human), UniProt Q15116 25-170); assay: ELISA, protein coated at 1 µg/mL
[8] = biological target: T7, cynomolgus monkey CD47 on engineered CHO-K1 cells (cynomolgus monkey, UniProt A0A5F8AK49 19-323 (rhesus entry)); assay: FACS on CHO-K1 cells expressing cynomolgus CD47 (CHOK1-cynoCD47), goat anti-human IgG-Fc PE
T7 construct: whole, on cells; also called cyno CD47 expressing cells; cynomolgus monkey CD47-expressing cells
Procedure: as §1

[9] = biological target: T1, human CD47 on engineered CHO-K1 cells; assay: competition FACS: CHO-K1 cells expressing human CD47, antibody titrated together with human SIRPα-His (1 µg/mL), bound SIRPα detected with anti-His-biotin and streptavidin-PE
Procedure: At the end, the cells were re-suspended in 100 μL 1% BSA-PBS, and the fluorescence intensity was measured by FACS (BD Canto II) and analyzed by FlowJo Version software. The competitive binding IC50s were calculated by using GraphPad Prism software equation: Nonlinear regression (curve fit)—log (antagonist) vs. response—Variable slope.

4-1B8.his = assay: non-specific binding ELISA, protein coated 1 µg/mL, lead antibody at 10 ug/ml
Procedure: (§2) The 96-well high binding plates were coated with 14 different proteins at 1 μg/mL at 4° C. overnight and blocked with 2% BSA-PBS for 1 hr. […] Then the Goat anti-human IgG-Fc-HRP secondary antibody was added and incubated for 1 hr. The TMB peroxidase substrate solution was added and then reaction was stopped after 12 minutes using 2M HCl. All incubation steps were performed at room temperature, and the plates were washed 5 times with PBST at pH 7.4 between steps. The absorbance of testing samples was measured at 450 nm with a multiwall plate reader (SpectraMax® M5e).

HER3.his [10] = biological target: T4, HER3.his; assay: as above
Procedure: as §2

HSA. [11] = biological target: T5, HSA.; assay: as above
Procedure: as §2

CD147.his = assay: as above
Procedure: as §2

CD40.his = assay: as above
Procedure: as §2

Factor Eight = assay: as above
Procedure: as §2

VEGFR2.his = assay: as above
Procedure: as §2

CD3.his = assay: as above
Procedure: as §2

OX40.his = assay: as above
Procedure: as §2

PD-1.his [12] = biological target: T6, PD-1.his; assay: as above
Procedure: as §2

VEGF.his = assay: as above
Procedure: as §2

CD22.his = assay: as above
Procedure: as §2

FGFR.his = assay: as above
Procedure: as §2

CTLA4.his = assay: as above
Procedure: as §2

human CD47 ECD protein [13] = biological target: T2, human CD47 ECD protein; assay: ELISA on plate-coated human CD47 ECD (1 µg/mL), goat anti-human IgG-Fc-HRP, OD450
Procedure: Then the Goat anti-human IgG-Fc-HRP secondary antibody was added and incubated for 1 hr. […] All incubation steps were performed at room temperature, and the plates were washed 5 times with PBST at pH 7.4 between steps.

T6 sequence (Q15116 25-170 limits assumed): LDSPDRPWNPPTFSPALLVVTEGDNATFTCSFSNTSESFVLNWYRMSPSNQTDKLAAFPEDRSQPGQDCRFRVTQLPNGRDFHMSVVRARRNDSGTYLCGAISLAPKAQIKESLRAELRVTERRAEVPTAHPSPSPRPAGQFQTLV
Sequence of VEGFR2.his (P35968 20-764): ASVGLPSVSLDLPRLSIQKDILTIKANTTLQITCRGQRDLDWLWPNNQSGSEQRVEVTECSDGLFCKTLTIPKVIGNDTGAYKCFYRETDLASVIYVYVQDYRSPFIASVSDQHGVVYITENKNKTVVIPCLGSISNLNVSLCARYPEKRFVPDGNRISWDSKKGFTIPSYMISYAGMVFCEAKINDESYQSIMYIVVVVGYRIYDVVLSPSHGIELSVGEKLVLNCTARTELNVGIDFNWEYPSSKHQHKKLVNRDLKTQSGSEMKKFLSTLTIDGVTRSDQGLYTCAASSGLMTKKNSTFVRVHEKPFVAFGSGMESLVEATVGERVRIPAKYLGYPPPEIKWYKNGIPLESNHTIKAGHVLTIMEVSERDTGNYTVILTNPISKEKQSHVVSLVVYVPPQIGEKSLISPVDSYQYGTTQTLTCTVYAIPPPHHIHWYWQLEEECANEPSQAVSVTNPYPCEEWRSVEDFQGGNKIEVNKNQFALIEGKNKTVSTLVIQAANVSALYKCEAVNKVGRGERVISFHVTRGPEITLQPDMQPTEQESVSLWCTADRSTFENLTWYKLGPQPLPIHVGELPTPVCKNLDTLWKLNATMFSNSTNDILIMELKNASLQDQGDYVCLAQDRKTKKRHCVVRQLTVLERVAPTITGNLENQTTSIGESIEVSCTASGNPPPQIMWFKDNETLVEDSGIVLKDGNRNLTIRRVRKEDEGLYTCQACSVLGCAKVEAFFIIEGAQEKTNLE
Sequence of CD40.his (P25942 21-193): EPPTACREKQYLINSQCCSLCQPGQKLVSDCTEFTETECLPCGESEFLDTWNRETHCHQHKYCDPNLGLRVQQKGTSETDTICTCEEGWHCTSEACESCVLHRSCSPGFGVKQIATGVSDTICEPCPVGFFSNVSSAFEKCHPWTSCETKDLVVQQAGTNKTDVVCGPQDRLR
Sequence of OX40.his (P43489 29-214): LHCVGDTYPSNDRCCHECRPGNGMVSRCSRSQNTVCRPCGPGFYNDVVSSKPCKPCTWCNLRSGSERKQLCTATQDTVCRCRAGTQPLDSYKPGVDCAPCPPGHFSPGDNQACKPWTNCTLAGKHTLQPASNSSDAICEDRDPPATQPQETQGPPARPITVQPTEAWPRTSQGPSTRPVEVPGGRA
Sequence of CTLA4.his (P16410 36-161): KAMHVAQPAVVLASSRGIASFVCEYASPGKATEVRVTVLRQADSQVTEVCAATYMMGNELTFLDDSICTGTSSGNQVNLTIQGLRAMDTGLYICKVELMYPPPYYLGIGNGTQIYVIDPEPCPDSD
Sequence of VEGF.his (P15692 whole entry): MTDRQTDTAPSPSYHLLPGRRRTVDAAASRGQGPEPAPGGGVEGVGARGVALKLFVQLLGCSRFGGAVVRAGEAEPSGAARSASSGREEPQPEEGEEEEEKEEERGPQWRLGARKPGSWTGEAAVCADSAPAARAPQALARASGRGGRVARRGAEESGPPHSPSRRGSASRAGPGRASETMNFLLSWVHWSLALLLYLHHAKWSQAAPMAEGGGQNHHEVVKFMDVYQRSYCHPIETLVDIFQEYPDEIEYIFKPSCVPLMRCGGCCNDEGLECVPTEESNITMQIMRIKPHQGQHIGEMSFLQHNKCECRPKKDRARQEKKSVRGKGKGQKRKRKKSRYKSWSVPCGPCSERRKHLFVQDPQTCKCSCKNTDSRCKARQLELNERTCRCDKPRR
Sequence of 4-1B8.his (Q07011 24-186): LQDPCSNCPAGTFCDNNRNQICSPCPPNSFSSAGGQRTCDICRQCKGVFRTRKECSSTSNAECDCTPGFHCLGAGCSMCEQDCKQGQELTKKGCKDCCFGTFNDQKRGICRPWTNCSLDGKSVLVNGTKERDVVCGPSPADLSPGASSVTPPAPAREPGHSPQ

EC50 [1]: 2.99 nM
IC50 (human CD47 ECD protein [2]): 3.21 nM
EC50 [3]: 76.7 nM
Kd (human CD47 ECD protein [4]): 0.0223 nM
koff (human CD47 ECD protein [4]): 2.34e-05 s⁻¹
kon (human CD47 ECD protein [4]): 1.05e+06 M⁻¹ s⁻¹
binding result (HER3.his [5]): no binding (tested: 10 ug/ml)
binding result (HSA. [6]): no binding (tested: 10 ug/ml)
binding result (PD-1.his [7]): no binding (tested: 10 ug/ml)
EC50 [8]: 2.71 nM
IC50 [9]: 20.1 nM
ELISA-OD450 (4-1B8.his): 0.0551
ELISA-OD450 (HER3.his [10]): 0.0462
ELISA-OD450 (HSA. [11]): 0.324
ELISA-OD450 (CD147.his): 0.0463
ELISA-OD450 (CD40.his): 0.209
ELISA-OD450 (Factor Eight): 0.0498
ELISA-OD450 (VEGFR2.his): 0.0452
ELISA-OD450 (CD3.his): 0.0527
ELISA-OD450 (OX40.his): 0.0487
ELISA-OD450 (PD-1.his [12]): 0.227
ELISA-OD450 (VEGF.his): 0.0475
ELISA-OD450 (CD22.his): 0.0478
ELISA-OD450 (FGFR.his): 0.138
ELISA-OD450 (CTLA4.his): 0.0573
EC50 (human CD47 ECD protein [13]): 0.038 nM
B1: W3455-4.9.9-uIgG4.SPL (antibody, V domains shown)
VH: EVQLLESGGGLVQPGGSLRLSCAASGFTFSNFAMSWVRQAPGKGLEWVSTISASGGRTFYADSVKGRITISRDNSKNTLFLQMNGLRAEDTAVYYCAKEGSFGEGVDPWGQGTLVTVSS
VL: SYEMTQPPSVSVSPGQTARITCSGDALPKKYAYWYQQKSGQAPVLVIYEDNKRPSGIPERFSGSSSGTMATLTISGAQVEDEADYYCYSTDISGNHWVFGGGTELTVLG
notes: Fully human anti-CD47 antibody; also called W3455 antibody; WBP3455-4.9.9-uIgG4.SPL
